The text below walks through data of patent US20090098106A1 (YEDA RESEARCH AND DEVELOPMENT, published 2009).

The chains are these.
T1: TRAF2 (UniProt Q12933 1-501, limits assumed)
T1 sequence (looked up): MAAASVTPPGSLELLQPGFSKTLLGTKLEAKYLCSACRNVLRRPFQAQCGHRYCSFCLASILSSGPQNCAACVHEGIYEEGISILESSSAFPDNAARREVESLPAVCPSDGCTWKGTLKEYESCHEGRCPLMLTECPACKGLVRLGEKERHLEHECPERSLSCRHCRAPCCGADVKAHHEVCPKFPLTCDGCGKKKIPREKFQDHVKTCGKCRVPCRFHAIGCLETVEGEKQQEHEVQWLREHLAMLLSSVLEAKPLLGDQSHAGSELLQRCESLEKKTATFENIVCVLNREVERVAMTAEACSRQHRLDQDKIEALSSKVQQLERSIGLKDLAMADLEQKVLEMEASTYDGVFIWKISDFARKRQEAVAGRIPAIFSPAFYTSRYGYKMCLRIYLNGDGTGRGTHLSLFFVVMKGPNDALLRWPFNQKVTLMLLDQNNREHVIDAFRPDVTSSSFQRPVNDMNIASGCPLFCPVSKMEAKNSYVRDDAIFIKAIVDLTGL

B1: NIK-N terminus (amino acids 1-367) (other)
chain: MAVMEMACPGAPGSAVGQQKELPKPKEKTPPLGKKQSSVYKLEAVEKSPVFCGKWEILNDVITKGTAKEGSEAGPAAISIIAQAECENSQEFSPTFSERIFIAGSKQYSQSESLDQIPNNVAHATEGKMARVCWKGKRRSKARKKRKKKSSKSLAHAGVALAKPLPRTPEQESCTIPVQEDESPLGAPYVRNTPQFTKPLKEPGLGQLCFKQLGEGLRPALPRSELHKLISPLQCLNHVWKLHHPQDGGPLPLPTHPFPYSRLPHPFPFHPLQPWKPHPLESFLGKLACVDSQKPLPDPHLSKLACVDSPKPLPGPHLEPSCLSRGAHEKFSVEEYLVHALQGSVSSSQAHSLTSLAKTWAARGSRS
notes: Yeast two-hybrid bait in pGBKT7
B2: NIK kinase domain (kinase motif, amino acids 400-650) (other)
chain: ATHQLRLGRGSFGEVHRMEDKQTGFQCAVKKVRLEVFRAEELMACAGLTSPRIVPLYGAVREGPWVNIFMELLEGGSLGQLVKEQGCLPEDRALYYLGQALEGLEYLHSRRILHGDVKADNVLLSSDGSHAALCDFGHAVCLQPDGLGKSLLTGDYIPGTETHMAPEVVLGRSCDAKVDVWSSCCMMLHMLNGCHPWTQFFRGPLCLKIASEPPPVREIPPSCAPLTAQAIQEGLRKEPIHRVSAAELGGK
notes: also called kinase motif of NIK
B3: HC8 (α7) subunit of the human 20S proteasome (other, UniProt P25788 1-255, looked up)
chain: MSSIGTGYDLSASTFSPDGRVFQVEYAMKAVENSSTAIGIRCKDGVVFGVEKLVLSKLYEEGSNKRLFNVDRHVGMAVAGLLADARSLADIAREEASNFRSNFGYNIPLKHLADRVAMYVHAYTLYSAVRPFGCSFMLGSYSVNDGAQLYMIDPSGVSYGYWGCAIGKARQAAKTEIEKLQMKEMTCRDIVKEVAKIIYIVHDEVKDKAFELELSWVGELTNGRHEIVPKDIREEAEKYAKESLKEEDESDDDNM
notes: Yeast two-hybrid: prey from a human bone marrow library, re-cloned into pGADT7; Co-immunoprecipitation: N-terminal HIS tag and/or C-terminal myc tag (pCDNA3); also called human C8

Experiment [1] has as its target B3. Put plainly: yeast two-hybrid, β-gal colour, strain SFY526 (bait NIK-N-ter, prey HC8). The source says:
(§1) Yeast 2 Hybrid Screening Assays: NIK or its deletions were cloned into pGBKT7 vector as bait and the preys were re-cloned into pGADT7 vector for assay in the yeast strain SFY526. The system used for screening was the Matchmaker version III (clontech). The prey was pretransformed human bone marrow library (cat# HY4053AH) pooled from 51 males/females in the age range 22-70. It belongs to a new generation of 2 hybrid libraries that offers high stringent quadruple drop out (QDO) selection along with α-gal assay. Clones growing on plates without LEU, TRP, HIS and ADE were reconfirmed by α-gal assay. Plasmids of the positive clones were prepared by lysis of the yeast cells with detergent and mechanical stress followed by phenol extraction and ethanol precipitation of the DNA. Encoded inserts from the plasmids were amplified by PCR with the primers specific for the library vector pACT2.
(§2) A yeast 2 hybrid screening was effected using intact NIK cDNA (GenBank Accession No. Y10256; SEQ ID NO: 5), NIK-C-terminus (amino acids 624-947 of SEQ ID NO: 5) or NIK-N terminus (amino acids 1-367) as a prey. The most prevalent prey which was found in these screenings was the α7 subunit (HC8) (GenBank Accession No. XM_{—}050947). […]

The target in another experiment is T1, TRAF2. Put plainly: yeast two-hybrid, β-gal colour, strain SFY526.
For experiment [2], the target named is B3. Nature of the experiment: co-immunoprecipitation from HeLa cells with anti-NIK monoclonal antibody, Western blot. (In general: In western blotting, separated proteins are transferred to a membrane and probed.)
Experiment [3] concerns the target T2, NIK-C-terminus (amino acids 624-947 of SEQ ID NO: 5) (human, UniProt Q99558 624-947).
T2 construct: Yeast two-hybrid bait in pGBKT7 (fusion partner not spelled out)
Put plainly: yeast two-hybrid, β-gal colour, strain SFY526 (bait NIK-C-ter, prey HC8).
Description: as §1, §2

In experiment [4] the target is T3, NF-κB inducing kinase (NIK), human, full length (human, UniProt Q99558 1-947).
T3 construct: Yeast two-hybrid: cloned into pGBKT7 as bait (fusion partner not spelled out); Co-immunoprecipitation: N-terminal 6 myc tag (pCS3MTNIK) in 293T cells, or His tag in HeLa cells; also called intact NIK; wild type NIK
Put plainly: yeast two-hybrid, β-gal colour, strain SFY526 (bait NIK, prey HC8).
Description: as §1, §2

T2 sequence (Q99558 624-947): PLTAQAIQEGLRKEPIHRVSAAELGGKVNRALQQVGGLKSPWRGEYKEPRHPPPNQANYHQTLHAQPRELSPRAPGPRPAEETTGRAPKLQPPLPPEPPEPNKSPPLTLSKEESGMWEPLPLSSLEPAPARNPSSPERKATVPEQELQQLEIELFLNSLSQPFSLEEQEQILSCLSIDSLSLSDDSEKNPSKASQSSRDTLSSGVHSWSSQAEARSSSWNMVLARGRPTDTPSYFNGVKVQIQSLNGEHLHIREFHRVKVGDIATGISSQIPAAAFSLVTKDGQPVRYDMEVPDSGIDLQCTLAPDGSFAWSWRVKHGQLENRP

As for B1, the binding result is recorded as “binds” in experiment [1] and “no binding” with TRAF2.
Regarding B2, the binding result in experiment [2] was “no binding”.
Consider B3, for which the binding result in experiment [3] and in experiment [4] was “binds” in each case.
